Data published in US20260070987A1.

B1: equine IgG7 wild-type (antibody, part only; not given: variable domains; allotype unstated, not shown: another chain or arm of the molecule)
constant: ASTTAPKVFPLASHSAATSGSTVALGCLVSSYFPEPVTVSWNSGALTSGVHTFPSVLQSSGLYSLSSMVTVPASSLKSQTYICNVAHPASSTKVDKKIVIKECGGCPTCPECLSVGPSVFIFPPKPKDVLMISRTPTVTCVVVDVGHDFPDVQFNWYVDGVETHTATTEPKQEQNNSTYRVVSILAIQHKDWLSGKEFKCKVNNQALPAPVQKTISKPTGQPREPQVYVLAPHRDELSKNKVSVTCLVKDFYPTDIDIEWKSNGQPEPETKYSTTPAQLDSDGSYFLYSKLTVETNRWQQGTTFTCAVMHEALHNHYTEKSVSKSPGK
B2: equine IgG7 K311C mutant (antibody, part only; not given: variable domains, not shown: another chain or arm of the molecule)
constant: ASTTAPKVFPLASHSAATSGSTVALGCLVSSYFPEPVTVSWNSGALTSGVHTFPSVLQSSGLYSLSSMVTVPASSLKSQTYICNVAHPASSTKVDKKIVIKECGGCPTCPECLSVGPSVFIFPPKPKDVLMISRTPTVTCVVVDVGHDFPDVQFNWYVDGVETHTATTEPKQEQNNSTYRVVSILAIQHCDWLSGKEFKCKVNNQALPAPVQKTISKPTGQPREPQVYVLAPHRDELSKNKVSVTCLVKDFYPTDIDIEWKSNGQPEPETKYSTTPAQLDSDGSYFLYSKLTVETNRWQQGTTFTCAVMHEALHNHYTEKSVSKSPGK
B3: equine IgG7 K311A mutant (antibody, part only; not given: Variable domains, not shown: another chain or arm of the molecule)
constant: ASTTAPKVFPLASHSAATSGSTVALGCLVSSYFPEPVTVSWNSGALTSGVHTFPSVLQSSGLYSLSSMVTVPASSLKSQTYICNVAHPASSTKVDKKIVIKECGGCPTCPECLSVGPSVFIFPPKPKDVLMISRTPTVTCVVVDVGHDFPDVQFNWYVDGVETHTATTEPKQEQNNSTYRVVSILAIQHADWLSGKEFKCKVNNQALPAPVQKTISKPTGQPREPQVYVLAPHRDELSKNKVSVTCLVKDFYPTDIDIEWKSNGQPEPETKYSTTPAQLDSDGSYFLYSKLTVETNRWQQGTTFTCAVMHEALHNHYTEKSVSKSPGK
B4: equine IgG7 K311F mutant (antibody, part only; not given: variable domains, not shown: another chain or arm of the molecule; small tags and cut ends)
constant: ASTTAPKVFPLASHSAATSGSTVALGCLVSSYFPEPVTVSWNSGALTSGVHTFPSVLQSSGLYSLSSMVTVPASSLKSQTYICNVAHPASSTKVDKKIVIKECGGCPTCPECLSVGPSVFIFPPKPKDVLMISRTPTVTCVVVDVGHDFPDVQFNWYVDGVETHTATTEPKQEQNNSTYRVVSILAIQHFDWLSGKEFKCKVNNQALPAPVQKTISKPTGQPREPQVYVLAPHRDELSKNKVSVTCLVKDFYPTDIDIEWKSNGQPEPETKYSTTPAQLDSDGSYFLYSKLTVETNRWQQGTTFTCAVMHEALHNHYTEKSVSKSPGK
B5: equine IgG7 K311E mutant (antibody, part only; not given: variable domains, not shown: another chain or arm of the molecule)
constant: ASTTAPKVFPLASHSAATSGSTVALGCLVSSYFPEPVTVSWNSGALTSGVHTFPSVLQSSGLYSLSSMVTVPASSLKSQTYICNVAHPASSTKVDKKIVIKECGGCPTCPECLSVGPSVFIFPPKPKDVLMISRTPTVTCVVVDVGHDFPDVQFNWYVDGVETHTATTEPKQEQNNSTYRVVSILAIQHEDWLSGKEFKCKVNNQALPAPVQKTISKPTGQPREPQVYVLAPHRDELSKNKVSVTCLVKDFYPTDIDIEWKSNGQPEPETKYSTTPAQLDSDGSYFLYSKLTVETNRWQQGTTFTCAVMHEALHNHYTEKSVSKSPGK
B6: equine IgG7 K311D mutant (antibody, part only; not given: Variable domains, not shown: another chain or arm of the molecule)
constant: ASTTAPKVFPLASHSAATSGSTVALGCLVSSYFPEPVTVSWNSGALTSGVHTFPSVLQSSGLYSLSSMVTVPASSLKSQTYICNVAHPASSTKVDKKIVIKECGGCPTCPECLSVGPSVFIFPPKPKDVLMISRTPTVTCVVVDVGHDFPDVQFNWYVDGVETHTATTEPKQEQNNSTYRVVSILAIQHDDWLSGKEFKCKVNNQALPAPVQKTISKPTGQPREPQVYVLAPHRDELSKNKVSVTCLVKDFYPTDIDIEWKSNGQPEPETKYSTTPAQLDSDGSYFLYSKLTVETNRWQQGTTFTCAVMHEALHNHYTEKSVSKSPGK
B7: equine IgG1 M428V (antibody, part only; not given: variable domains, not shown: another chain or arm of the molecule)
constant: ASTTAPKVFALAPGCGTTSDSTVALGCLVSGYFPEPVKVSWNSGSLTSGVHTFPSVLQSSGFYSLSSMVTVPASTWTSETYICNVVHAASNFKVDKRIEPIPDNHQKVCDMSKCPKCPAPELLGGPSVFIFPPNPKDTLMITRTPEVTCVVVDVSQENPDVKFNWYMDGVEVRTATTRPKEEQFNSTYRVVSVLRIQHQDWLSGKEFKCKVNNQALPQPIERTITKTKGRSQEPQVYVLAPHPDELSKSKVSVTCLVKDFYPPEINIEWQSNGQPELETKYSTTQAQQDSDGSYFLYSKLSVDRNRWQQGTTFTCGVVHEALHNHYTQKNVSKNPGK
B8: equine IgG1 M428Y (antibody, part only; not given: variable domains, not shown: another chain or arm of the molecule)
constant: ASTTAPKVFALAPGCGTTSDSTVALGCLVSGYFPEPVKVSWNSGSLTSGVHTFPSVLQSSGFYSLSSMVTVPASTWTSETYICNVVHAASNFKVDKRIEPIPDNHQKVCDMSKCPKCPAPELLGGPSVFIFPPNPKDTLMITRTPEVTCVVVDVSQENPDVKFNWYMDGVEVRTATTRPKEEQFNSTYRVVSVLRIQHQDWLSGKEFKCKVNNQALPQPIERTITKTKGRSQEPQVYVLAPHPDELSKSKVSVTCLVKDFYPPEINIEWQSNGQPELETKYSTTQAQQDSDGSYFLYSKLSVDRNRWQQGTTFTCGVYHEALHNHYTQKNVSKNPGK
B9: equine IgG1 N434A (antibody, part only; not given: Variable domains, not shown: another chain or arm of the molecule)
constant: ASTTAPKVFALAPGCGTTSDSTVALGCLVSGYFPEPVKVSWNSGSLTSGVHTFPSVLQSSGFYSLSSMVTVPASTWTSETYICNVVHAASNFKVDKRIEPIPDNHQKVCDMSKCPKCPAPELLGGPSVFIFPPNPKDTLMITRTPEVTCVVVDVSQENPDVKFNWYMDGVEVRTATTRPKEEQFNSTYRVVSVLRIQHQDWLSGKEFKCKVNNQALPQPIERTITKTKGRSQEPQVYVLAPHPDELSKSKVSVTCLVKDFYPPEINIEWQSNGQPELETKYSTTQAQQDSDGSYFLYSKLSVDRNRWQQGTTFTCGVMHEALHAHYTQKNVSKNPGK
B10: equine IgG1 M428W (antibody, part only; not given: variable domains, not shown: another chain or arm of the molecule)
constant: ASTTAPKVFALAPGCGTTSDSTVALGCLVSGYFPEPVKVSWNSGSLTSGVHTFPSVLQSSGFYSLSSMVTVPASTWTSETYICNVVHAASNFKVDKRIEPIPDNHQKVCDMSKCPKCPAPELLGGPSVFIFPPNPKDTLMITRTPEVTCVVVDVSQENPDVKFNWYMDGVEVRTATTRPKEEQFNSTYRVVSVLRIQHQDWLSGKEFKCKVNNQALPQPIERTITKTKGRSQEPQVYVLAPHPDELSKSKVSVTCLVKDFYPPEINIEWQSNGQPELETKYSTTQAQQDSDGSYFLYSKLSVDRNRWQQGTTFTCGVWHEALHNHYTQKNVSKNPGK
B11: equine IgG1 N434E (antibody, part only; not given: variable domains, not shown: another chain or arm of the molecule)
constant: ASTTAPKVFALAPGCGTTSDSTVALGCLVSGYFPEPVKVSWNSGSLTSGVHTFPSVLQSSGFYSLSSMVTVPASTWTSETYICNVVHAASNFKVDKRIEPIPDNHQKVCDMSKCPKCPAPELLGGPSVFIFPPNPKDTLMITRTPEVTCVVVDVSQENPDVKFNWYMDGVEVRTATTRPKEEQFNSTYRVVSVLRIQHQDWLSGKEFKCKVNNQALPQPIERTITKTKGRSQEPQVYVLAPHPDELSKSKVSVTCLVKDFYPPEINIEWQSNGQPELETKYSTTQAQQDSDGSYFLYSKLSVDRNRWQQGTTFTCGVMHEALHEHYTQKNVSKNPGK
B12: equine IgG1 N434C (antibody, part only; not given: variable domains, not shown: another chain or arm of the molecule)
constant: ASTTAPKVFALAPGCGTTSDSTVALGCLVSGYFPEPVKVSWNSGSLTSGVHTFPSVLQSSGFYSLSSMVTVPASTWTSETYICNVVHAASNFKVDKRIEPIPDNHQKVCDMSKCPKCPAPELLGGPSVFIFPPNPKDTLMITRTPEVTCVVVDVSQENPDVKFNWYMDGVEVRTATTRPKEEQFNSTYRVVSVLRIQHQDWLSGKEFKCKVNNQALPQPIERTITKTKGRSQEPQVYVLAPHPDELSKSKVSVTCLVKDFYPPEINIEWQSNGQPELETKYSTTQAQQDSDGSYFLYSKLSVDRNRWQQGTTFTCGVMHEALHCHYTQKNVSKNPGK

What follows are binders tested against equine FcRn (large alpha subunit p51) in complex with equine beta-2-microglobulin (equine) (UniProt F6XZ61) (assay: SPR (Biacore), pH 6).
Sequence of UniProt F6XZ61 (F6XZ61 entry or part of it, one chain of several): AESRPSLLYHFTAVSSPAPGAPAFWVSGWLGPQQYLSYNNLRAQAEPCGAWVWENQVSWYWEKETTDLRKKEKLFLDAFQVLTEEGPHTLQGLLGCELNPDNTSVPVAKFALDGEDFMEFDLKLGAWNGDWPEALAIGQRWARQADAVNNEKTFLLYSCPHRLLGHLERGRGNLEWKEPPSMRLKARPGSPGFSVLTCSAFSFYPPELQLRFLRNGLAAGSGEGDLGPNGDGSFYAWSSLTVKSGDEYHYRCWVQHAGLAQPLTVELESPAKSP

In order of rising Kd:
1. B2  15.9 nM
2. B4  20.5 nM
3. B1  21.7 nM
4. B3  24.4 nM
5. B6  34.1 nM
6. B5  60 nM

Each binder was assayed against equine FcRn (large alpha subunit p51) / equine beta-2-microglobulin complex, biotinylated (equine) (UniProt P30441) (assay: SPR (Biacore), pH 6).
Sequence of UniProt P30441 (P30441 21-118, one chain of several): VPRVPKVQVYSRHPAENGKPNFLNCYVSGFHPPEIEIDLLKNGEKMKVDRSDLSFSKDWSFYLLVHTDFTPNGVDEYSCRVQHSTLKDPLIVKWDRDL

In order of falling Kd:
1. B7  65.8 nM
2. B11  50.6 nM
3. B12  42.6 nM
4. B10  31.9 nM
5. B8  17 nM
6. B9  6.54 nM
